{
  "source": "patent US8987192B2",
  "about": "“Potent and selective mediators of cholesterol efflux” (The Regents of the University of California, priority 2006, dated 2015)",
  "biological_target": "ABCA1 (Mus musculus, UniProt P41233)",
  "sequence (P41233 whole entry)": "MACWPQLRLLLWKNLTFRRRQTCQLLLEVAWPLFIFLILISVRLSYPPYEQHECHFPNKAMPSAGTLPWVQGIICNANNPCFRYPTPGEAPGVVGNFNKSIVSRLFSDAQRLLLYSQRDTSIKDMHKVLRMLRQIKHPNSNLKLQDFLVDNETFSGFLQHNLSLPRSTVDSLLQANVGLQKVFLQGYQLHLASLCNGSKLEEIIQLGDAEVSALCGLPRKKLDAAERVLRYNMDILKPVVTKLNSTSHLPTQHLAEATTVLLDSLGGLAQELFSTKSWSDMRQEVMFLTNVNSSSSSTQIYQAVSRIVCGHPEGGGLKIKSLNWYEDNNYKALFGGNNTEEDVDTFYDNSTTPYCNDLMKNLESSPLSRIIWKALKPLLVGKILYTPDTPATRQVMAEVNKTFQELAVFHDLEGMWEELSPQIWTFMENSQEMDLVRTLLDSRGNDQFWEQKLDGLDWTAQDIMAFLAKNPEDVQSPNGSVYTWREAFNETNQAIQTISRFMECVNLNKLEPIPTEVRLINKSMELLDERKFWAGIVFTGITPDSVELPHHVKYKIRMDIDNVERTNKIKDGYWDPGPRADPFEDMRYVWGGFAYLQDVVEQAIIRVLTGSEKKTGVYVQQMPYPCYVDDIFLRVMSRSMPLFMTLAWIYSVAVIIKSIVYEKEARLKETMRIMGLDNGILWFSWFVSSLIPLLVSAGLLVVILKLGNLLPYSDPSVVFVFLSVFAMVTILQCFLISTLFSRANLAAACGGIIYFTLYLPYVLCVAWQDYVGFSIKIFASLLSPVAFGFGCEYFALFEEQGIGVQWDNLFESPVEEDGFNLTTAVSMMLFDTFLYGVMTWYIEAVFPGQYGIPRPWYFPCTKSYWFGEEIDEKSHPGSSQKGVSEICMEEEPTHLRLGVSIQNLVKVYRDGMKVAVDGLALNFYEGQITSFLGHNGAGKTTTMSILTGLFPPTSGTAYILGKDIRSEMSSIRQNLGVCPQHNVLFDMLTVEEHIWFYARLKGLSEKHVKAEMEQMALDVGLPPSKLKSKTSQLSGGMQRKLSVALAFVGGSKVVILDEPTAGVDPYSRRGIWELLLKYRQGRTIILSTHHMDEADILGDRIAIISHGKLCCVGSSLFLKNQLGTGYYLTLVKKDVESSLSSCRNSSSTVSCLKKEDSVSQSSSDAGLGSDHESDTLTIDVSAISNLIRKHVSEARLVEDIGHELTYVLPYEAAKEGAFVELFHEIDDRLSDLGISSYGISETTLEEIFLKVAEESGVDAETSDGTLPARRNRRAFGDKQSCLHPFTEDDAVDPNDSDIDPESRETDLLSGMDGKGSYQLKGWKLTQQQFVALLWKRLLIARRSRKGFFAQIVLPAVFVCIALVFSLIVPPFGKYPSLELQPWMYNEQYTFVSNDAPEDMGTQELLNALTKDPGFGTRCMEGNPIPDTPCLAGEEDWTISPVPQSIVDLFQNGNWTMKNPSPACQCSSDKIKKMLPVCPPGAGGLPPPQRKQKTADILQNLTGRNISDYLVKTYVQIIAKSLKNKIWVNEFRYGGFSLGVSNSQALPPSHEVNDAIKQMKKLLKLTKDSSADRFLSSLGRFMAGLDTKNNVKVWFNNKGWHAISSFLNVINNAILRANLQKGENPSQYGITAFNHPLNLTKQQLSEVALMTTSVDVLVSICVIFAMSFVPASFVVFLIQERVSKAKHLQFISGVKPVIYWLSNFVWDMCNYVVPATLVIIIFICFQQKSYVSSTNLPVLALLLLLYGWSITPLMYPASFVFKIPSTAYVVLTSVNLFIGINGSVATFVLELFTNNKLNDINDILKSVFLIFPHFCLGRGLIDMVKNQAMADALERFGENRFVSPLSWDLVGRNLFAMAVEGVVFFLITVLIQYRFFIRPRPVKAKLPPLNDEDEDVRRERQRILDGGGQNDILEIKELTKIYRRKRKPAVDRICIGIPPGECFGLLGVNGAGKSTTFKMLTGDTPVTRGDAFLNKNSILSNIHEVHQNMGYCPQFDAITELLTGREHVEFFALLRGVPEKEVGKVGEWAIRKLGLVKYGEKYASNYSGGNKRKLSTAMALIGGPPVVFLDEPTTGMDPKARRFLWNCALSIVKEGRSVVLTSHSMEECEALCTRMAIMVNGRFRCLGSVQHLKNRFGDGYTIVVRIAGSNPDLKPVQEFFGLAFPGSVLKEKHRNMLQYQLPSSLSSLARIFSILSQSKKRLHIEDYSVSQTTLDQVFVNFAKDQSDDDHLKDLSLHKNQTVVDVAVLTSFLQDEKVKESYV",
  "assay": "Cholesterol efflux from [3H]cholesterol-labeled ABCA1-expressing J774 mouse macrophages",
  "type": "cell-based",
  "design": "to upregulate cellular ABCA1 protein; endogenous in cells; host or cells: J774 mouse macrophages",
  "settings": "for ABCA1-dependent cholesterol efflux: macrophages with vs without cAMP; for capacity to stimulate cholesterol efflux at 3 μg/ml: 3 μg/ml lipid-free peptide, ABCA1-expressing macrophages; for efficiency of ABCA1 cholesterol efflux (concentration dependence): concentration dependence curves; for cholesterol efflux from macrophages not induced for ABCA1 (non-specific): no cAMP",
  "protocol": "In some embodiments, a polypeptide known to mediate cholesterol efflux (e.g., helix 9/10 of Apo A-I) is used to screen for additional mediators of cholesterol efflux in a cell based assay. For example, cell lines in which cholesterol efflux can be enhanced using a cAMP analog that up-regulates ABCA1 protein expression (e.g., J774 macrophages) can conveniently be used to assess the ability of a polypeptide of the present invention to mediate cholesterol efflux. The cells are incubated with labeled cholesterol (e.g., [^3H]cholesterol) under conditions appropriate for cholesterol uptake by the cells. Thus, cAMP or cAMP analogs (e.g., CPT-cAMP) are incubated with the cells for a suitable time before the initiation of cellular cholesterol efflux, i.e., prior to contacting the cells with a test polypeptide. Measurement of labeled cholesterol appearing in the medium is used to determine the cholesterol efflux mediating activity of the test polypeptide.\nJ774 mouse macrophages labeled with [^3H]cholesterol were treated (20 h) with 22-hydroxycholesterol (10 μM)/cis-retinoic acid (10 μM) to upregulate cellular ABCA1 protein.\nMouse macrophages were labeled with [^3H]cholesterol and treated with a cAMP analog to induce ABCA1 expression. […] Km values were calculated using the Michaelis-Menton equation and GraphPad Prism4 software.\nInverted sequence peptides synthesized with all L-amino acids and all D-amino acids were tested for cholesterol efflux activity using ABCA1 expressing J774 macrophages.\nTwo peptide analogs were engineered; the first replacing glutamic acid residues (E) at position 8 and 15 with aspartic acid residues (D), i.e., E8, 15>D polypeptides, and the second, replacing E1, 7, 8, 15, 18, 19 with D, i.e., all D (Asp) polypeptide. Cholesterol efflux activity was determined using J774 macrophages treated with and without a cAMP analog to modulate ABCA1 expression.\nThe impact of the A12>L substitution was also tested for activity, which also expanded non-polar surface area.\n1-palmitoyl-2-oleoyl-phosphatidylcholine (POPC) was used to evaluate the cholesterol efflux properties of a formulated polypeptide of the present invention. […] To test cholesterol efflux activity, J774 mouse macrophages were labeled with [^3H]cholesterol and treated with and without cAMP to modulate ABCA1 expression.",
  "note": "“Also recorded” adds a separate entry of the source. Where no end group is shown, it is not given here. [ ]: non-standard residue; d: D form.",
  "data": [
    {"substance": "SKLRALFEEAFERFAAFWEELKSRVE ([dS][dK][dL][dR][dA][dL][dF][dE][dE][dA][dF][dE][dR][dF][dA][dA][dF][dW][dE][dE][dL][dK][dS][dR][dV][dE])", "values": [
      {"measurement": "ABCA1-dependent cholesterol efflux", "result": "stimulate ABCA1 cholesterol efflux in a ABCA1-dependent manner"}
    ]},
    {"substance": "EVRSKLEEWFAAFREFFEEFLARL (amphipathic alpha-helix polypeptide core sequence selectively binds HDL, high-affinity ligand for ATP- binding cassette transporter A1 (ABCA1), ABCA1-lipid cholesterol efflux, ABCA1-stablization, anti-oxidant and anti-inflammatory activity) [24-mer]", "values": [
      {"measurement": "capacity to stimulate cholesterol efflux at 3 μg/ml", "result": "retained high capacity to stimulate cholesterol efflux; also recorded: retained high activity"},
      {"measurement": "efficiency of ABCA1 cholesterol efflux (concentration dependence)", "result": "high efficience"},
      {"measurement": "ABCA1-dependent cholesterol efflux", "result": "stimulated cholesterol efflux in an ABCA1-dependent manner"}
    ]},
    {"substance": "E8, 15>D: SEQ ID NO:5 with glutamic acid at positions 8 and 15 replaced with aspartic acid (EVRSKLEDWFAAFRDFFEEFLARLKS; S1 amphipathic alpha-helix polypeptide core sequence selectively binds HDL, high-affinity ligand for ATP- binding cassette transporter A1 (ABCA1), ABCA1-lipid cholesterol efflux, ABCA1-stablization, anti-oxidant and anti-inflammatory activity)", "values": [
      {"measurement": "ABCA1-dependent cholesterol efflux", "result": "retained high capacity to stimulate cholesterol efflux in an ABCA1-dependent manner"}
    ]},
    {"substance": "E1, 7, 8, 15, 18, 19>D: SEQ ID NO:5 with E1, 7, 8, 15, 18, 19 replaced with D (DVRSKLDDWFAAFRDFFDDFLARLKS; S1 amphipathic alpha-helix polypeptide core sequence selectively binds HDL, high-affinity ligand for ATP- binding cassette transporter A1 (ABCA1), ABCA1-lipid cholesterol efflux, ABCA1-stablization, anti-oxidant and anti-inflammatory activity)", "values": [
      {"measurement": "ABCA1-dependent cholesterol efflux", "result": "retained high capacity to stimulate cholesterol efflux in an ABCA1-dependent manner"}
    ]},
    {"substance": "S4, 26>A: SEQ ID NO:4 with serine to alanine substitutions at positions 4 and 26 (EVRAKLEEWFAAFREFAEEFLARLKA; ATI-5261 amphipathic alpha-helix polypeptide core sequence selectively binds HDL, high-affinity ligand for ATP-binding cassette transporter A1 (ABCA1), ABCA1-lipid cholesterol efflux, ABCA1-stablization, anti-oxidant and anti- inflammatory activity)", "values": [
      {"measurement": "ABCA1-dependent cholesterol efflux", "result": "retained ABCA1-dependent cholesterol efflux activity"}
    ]},
    {"substance": "EFRSKLEEWFAAFREFFEEFLARLKS (S2 amphipathic alpha-helix polypeptide core sequence selectively binds HDL, high-affinity ligand for ATP- binding cassette transporter A1 (ABCA1), ABCA1-lipid cholesterol efflux, ABCA1-stablization, anti-oxidant and anti-inflammatory activity) [SEQ ID NO:6]", "values": [
      {"measurement": "cholesterol efflux efficiency/potency on per molecule (molar) basis versus apolipoproteins", "setting": "Km in molar units", "result": "activity similar to full-length Apo A-I, Apo E, and the C-terminal (CT) domain of Apo E"}
    ]},
    {"substance": "R3>F: SEQ ID NO:4 polypeptides with arginine at position 3 replaced by phenylalanine (EVFSKLEEWFAAFREFAEEFLARLKS; ATI-5261 amphipathic alpha-helix polypeptide core sequence selectively binds HDL, high-affinity ligand for ATP-binding cassette transporter A1 (ABCA1), ABCA1-lipid cholesterol efflux, ABCA1-stablization, anti-oxidant and anti- inflammatory activity)", "values": [
      {"measurement": "ABCA1-dependent cholesterol efflux", "result": "relatively high-levels of cholesterol efflux"},
      {"measurement": "cholesterol efflux from macrophages not induced for ABCA1 (non-specific)", "result": "low-levels of cholesterol efflux"}
    ]},
    {"substance": "R14→Q: SEQ ID NO:5 with arginine 14 replaced by glutamine (EVRSKLEEWFAAFQEFFEEFLARLKS; S1 amphipathic alpha-helix polypeptide core sequence selectively binds HDL, high-affinity ligand for ATP- binding cassette transporter A1 (ABCA1), ABCA1-lipid cholesterol efflux, ABCA1-stablization, anti-oxidant and anti-inflammatory activity)", "values": [
      {"measurement": "ABCA1-dependent cholesterol efflux at 30 μg/ml", "setting": "30 μg/ml peptide", "result": "mediated cholesterol efflux in an ABCA1 dependent manner"},
      {"measurement": "efficiency of ABCA1 cholesterol efflux (concentration dependence)", "result": "high efficiency"}
    ]},
    {"substance": "R3, 14, 23→K3, 14, 23: SEQ ID NO:5 with lysine in place of arginine at positions 3, 14 and 23 (EVKSKLEEWFAAFKEFFEEFLAKLKS; S1 amphipathic alpha-helix polypeptide core sequence selectively binds HDL, high-affinity ligand for ATP- binding cassette transporter A1 (ABCA1), ABCA1-lipid cholesterol efflux, ABCA1-stablization, anti-oxidant and anti-inflammatory activity)", "values": [
      {"measurement": "ABCA1-dependent cholesterol efflux", "result": "stimulated ABCA1 cholesterol efflux"},
      {"measurement": "cholesterol efflux from macrophages not induced for ABCA1 (non-specific)", "result": "Low efflux"}
    ]},
    {"substance": "22-mer: SEQ ID NO:5 truncated from the C-terminal end to 22 residues (EVRSKLEEWFAAFREFFEEFLA; S1 amphipathic alpha-helix polypeptide core sequence selectively binds HDL, high-affinity ligand for ATP- binding cassette transporter A1 (ABCA1), ABCA1-lipid cholesterol efflux, ABCA1-stablization, anti-oxidant and anti-inflammatory activity)", "values": [
      {"measurement": "capacity to stimulate cholesterol efflux at 3 μg/ml", "result": "weakly active"}
    ]},
    {"substance": "25-mer: SEQ ID NO:5 lacking the C-terminal Ser26 (EVRSKLEEWFAAFREFFEEFLARLK; S1 amphipathic alpha-helix polypeptide core sequence selectively binds HDL, high-affinity ligand for ATP- binding cassette transporter A1 (ABCA1), ABCA1-lipid cholesterol efflux, ABCA1-stablization, anti-oxidant and anti-inflammatory activity)", "values": [
      {"measurement": "capacity to stimulate cholesterol efflux at 3 μg/ml", "result": "retained high capacity to stimulate cholesterol efflux; also recorded: retained high activity"}
    ]},
    {"substance": "R3, 14, 23→Q3, 14, 23: SEQ ID NO:5 with arginines 3, 14, 23 changed to glutamine (EVQSKLEEWFAAFQEFFEEFLAQLKS; S1 amphipathic alpha-helix polypeptide core sequence selectively binds HDL, high-affinity ligand for ATP- binding cassette transporter A1 (ABCA1), ABCA1-lipid cholesterol efflux, ABCA1-stablization, anti-oxidant and anti-inflammatory activity)", "values": [
      {"measurement": "efficiency of ABCA1 cholesterol efflux (concentration dependence)", "result": "reduced efflux efficiency"},
      {"measurement": "ABCA1-dependent cholesterol efflux", "result": "greatly reduced efflux capacity"}
    ]},
    {"substance": "18-mer: SEQ ID NO:5 truncated from the C-terminal end to 18 residues (EVRSKLEEWFAAFREFFE; S1 amphipathic alpha-helix polypeptide core sequence selectively binds HDL, high-affinity ligand for ATP- binding cassette transporter A1 (ABCA1), ABCA1-lipid cholesterol efflux, ABCA1-stablization, anti-oxidant and anti-inflammatory activity)", "values": [
      {"measurement": "capacity to stimulate cholesterol efflux at 3 μg/ml", "result": "weakly active"}
    ]},
    {"substance": "EVRSKLEEWFAAFREFAEEFLARLKS ([dE][dV][dR][dS][dK][dL][dE][dE][dW][dF][dA][dA][dF][dR][dE][dF][dA][dE][dE][dF][dL][dA][dR][dL][dK][dS])", "values": [
      {"measurement": "ABCA1-dependent cholesterol efflux", "result": "promoted ABCA1 cholesterol efflux"},
      {"measurement": "ABCA1-dependent cholesterol efflux", "setting": "listed as D-amino acid analog of SEQ ID NO:4", "result": "stimulate ABCA1 cholesterol efflux in a ABCA1-dependent manner"}
    ]}
  ]
}
